This experiment deals with lysine-acetylated histone H4 peptide SGRGKGG-AcK-GLGK (Lys8 acetylated). Kind of experiment: NMR titration, 15N-HSQC chemical shift changes against ligand concentration.

The values that follow come from patent US20120028912A1.

By Kd is commonly meant a measure of binding affinity in units of concentration.

B1: bromodomain of P/CAF (residues 719-832 of SEQ ID NO:2), Q92831 719-832 (protein)
chain: SKEPRDPDQLYSTLKSILQQVKSHQSAWPFMEPVKRTEAPGYYEVIRFPMDLKTMSERLKNRYYVSKKLFMADLQRVFTNCKEYNAAESEYYKCANILEKFFFSKIKEAGLIDK
B1: the Kd stood at 346 µM.
